Publication PMC12591191 (2025)
Where no end group is shown, it is not given here. The star is where a group is joined. Biotin = O=C1N[C@H]2[C@H](CS[C@H]2CCCCC(=O)*)N1; Myristoyl = CCCCCCCCCCCCCC(=O)*

How the values were obtained:
SIRT6 S56Y [1] = target: T1, SIRT6 S56Y (human, UniProt Q8N6T7 1-355, S56Y); assay: BLI
SIRT6 G60A = SIRT6 G60A (Homo sapiens); assay: BLI
SIRT6 R65A [2] = target: T2, SIRT6 R65A (human, UniProt Q8N6T7 1-355, R65A); assay: BLI
SIRT6 H133Y [3] = target: T3, SIRT6 H133Y (human, UniProt Q8N6T7 1-355, H133Y); assay: BLI
T3 sequence (Q8N6T7 whole entry H133Y): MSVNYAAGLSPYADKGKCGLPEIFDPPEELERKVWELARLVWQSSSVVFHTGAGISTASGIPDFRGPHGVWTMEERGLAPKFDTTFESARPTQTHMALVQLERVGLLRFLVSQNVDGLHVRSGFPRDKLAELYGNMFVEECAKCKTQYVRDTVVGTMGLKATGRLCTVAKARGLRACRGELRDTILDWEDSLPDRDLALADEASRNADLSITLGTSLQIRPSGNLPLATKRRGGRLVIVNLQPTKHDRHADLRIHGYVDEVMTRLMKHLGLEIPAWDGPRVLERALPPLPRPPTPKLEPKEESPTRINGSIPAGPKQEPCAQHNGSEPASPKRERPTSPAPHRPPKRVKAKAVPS

SIRT6 S56Y [4] = target: T1, SIRT6 S56Y; assay: BLI; Mg2+
SIRT6 R65A [5] = target: T2, SIRT6 R65A; assay: BLI; Mg2+
SIRT6 H133Y [6] = target: T3, SIRT6 H133Y; assay: BLI; Mg2+

T2 sequence (Q8N6T7 whole entry R65A): as the sequence (Q8N6T7 whole entry H133Y) above, with R65A, Y133H counted along it
T1 sequence (Q8N6T7 whole entry S56Y): as the sequence (Q8N6T7 whole entry H133Y) above, with S56Y, Y133H counted along it
SIRT6 G60A (Homo sapiens), sequence (chain, as listed by the source G60A): as the sequence (Q8N6T7 whole entry H133Y) above, with G60A, Y133H counted along it

B1: B-H3K9^Myr-5R (biotin-KQTARK^MyrSTGGKARRRRR) (peptide)
peptide: Biotin-KQTARK(Myristoyl)STGGKARRRRR
SIRT6 S56Y [1]
  Kd: 1.6 µM
SIRT6 G60A
  Kd: 1.3 µM
SIRT6 R65A [2]
  Kd: 2 µM
SIRT6 H133Y [3]
  Kd: 3.2 µM
SIRT6 S56Y [4]
  Kd: 0.61 µM
SIRT6 R65A [5]
  Kd: 1.8 µM
SIRT6 H133Y [6]
  Kd: 0.68 µM
